From PMC10194908 (PLOS ONE, 2023)

Experiments:
[1] = molecular target: T1, Recombinant NS1 from DENV-4-Dominica/814669/1981 (dengue virus serotype 4 …, UniProt P09866); assay: BLI; settings: both partners purified
T1 construct: also called DENV-4 NS1

[2] = molecular target: T2, Recombinant NS1 from DENV-3-Sri Lanka D3/H/IMTSSA-SRI/2000/1266 (dengue virus serotype 3 (Sri Lanka …, UniProt Q6YMS4)); assay: immunoblot; settings: both partners purified
T2 construct: also called DENV-3 NS1

[3] = molecular target: NS1 secreted from Vero cells infected with DENV-3-VN32/96 (Dengue virus 3, strain VN32/96 (paper: …, strain)); assay: ELISA; settings: one partner purified
[4] = molecular target: NS1 secreted from Vero cells infected with DENV-3-CHD94-089 (Dengue virus 3, strain CHD94-089 …, strain); assay: ELISA; settings: one partner purified
[5] = molecular target: T2, Recombinant NS1 from DENV-3-Sri Lanka …; assay: ELISA; settings: both partners purified
[6] = molecular target: NS1 secreted from Vero cells infected with DENV-4-TVP360 (Dengue virus type 4, strain TVP360 …, UniProt D2KQW6, strain); assay: ELISA; settings: one partner purified
[7] = molecular target: NS1 secreted from Vero cells infected with DENV-2-TSV01 (Dengue virus type 2, strain TSV01 …, UniProt Q91H74, strain); assay: ELISA; settings: one partner purified
[8] = molecular target: NS1 secreted from Vero cells infected with DENV-4-2641Y08 (Dengue virus type 4, strain 2641Y08 …, UniProt F8TEL4, strain); assay: ELISA; settings: one partner purified
[9] = molecular target: NS1 secreted from Vero cells infected with DENV-2-D2Y98P (Dengue virus type 2, strain D2Y98P …, UniProt F8TRW4, strain); assay: ELISA; settings: one partner purified
[10] = molecular target: T1, Recombinant NS1 from …; assay: immunoblot; settings: both partners purified
Target sequence in this assay (P09866 775-1126): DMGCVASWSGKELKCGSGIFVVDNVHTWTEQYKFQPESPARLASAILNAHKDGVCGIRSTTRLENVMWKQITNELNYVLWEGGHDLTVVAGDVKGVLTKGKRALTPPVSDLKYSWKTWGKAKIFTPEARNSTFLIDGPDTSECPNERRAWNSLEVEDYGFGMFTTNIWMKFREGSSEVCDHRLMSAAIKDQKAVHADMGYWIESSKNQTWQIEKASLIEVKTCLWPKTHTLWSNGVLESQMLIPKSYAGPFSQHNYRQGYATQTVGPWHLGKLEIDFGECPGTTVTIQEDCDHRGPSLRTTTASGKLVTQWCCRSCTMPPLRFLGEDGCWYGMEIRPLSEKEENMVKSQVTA

Measured: binding result

T2 sequence (Q6YMS4 774-1125): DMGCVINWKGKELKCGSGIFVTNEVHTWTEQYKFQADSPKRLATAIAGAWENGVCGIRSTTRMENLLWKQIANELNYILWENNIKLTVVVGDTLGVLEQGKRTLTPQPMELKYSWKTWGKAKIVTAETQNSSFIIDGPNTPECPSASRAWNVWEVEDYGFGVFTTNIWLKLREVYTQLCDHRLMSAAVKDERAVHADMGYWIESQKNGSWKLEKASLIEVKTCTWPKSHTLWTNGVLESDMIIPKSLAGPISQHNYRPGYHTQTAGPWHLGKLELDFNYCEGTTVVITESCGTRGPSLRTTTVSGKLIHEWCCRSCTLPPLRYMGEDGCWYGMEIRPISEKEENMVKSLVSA

B1: A2 (antibody, V domains shown)
VH: QVQLQESGGGVVQPGRSLRLFCAASGFTFSAFSTYAIHWVRQAPGKGLEWVAVISYDANNKYYADSVKGRFTISRDNFKSTLFLQMNSLRAEDTAVYYCARDRSDSGYDSYYYYYGMDVWGQGTTVTVSS
VL: QSVVTQPPSVSAAPGQKVTISCSGSSSNIGRNYVSWYQHLPGTAPKLLIYDNNKRRSGIPDRFSGSKSDTTATLGITGLQTVDEADYYCGSWDNSLSAYVFGTGTKVTV
notes: also called A2-HRP
binds: [1] | [2]

B2: D8 (antibody, V domains shown)
VH: QVQLQESGPGLVKPSETLPLTCTVSGGSISNNGFYWGWIRQPPGKGLEWIGNIYYRGSTYYNPSLNSRVTISVDTSKNQFSLQLNSVTAADTAVYYCARLGIQLWFAIDYWGQGTLVTVSS
VL: SVLTQPPAVSVALGQTVRITCQGDSLRSSYASWYQQKPGQAPVLIFYAKNNRPSGIPDRFSGSSSGNTASLTITGAQAEDEADYYCYSRDSSGNLWVFGGGTKLTVL
notes: also called D8-HRP; HRP-D8
not listed: [1] | [2] | [10]
binds: all other assays above

B3: D6 (antibody, V domains shown)
VH: EVQLVQSGGGLVQPGRSLRLSCAASGFTFQDYAMHWVRQAPGKGLEWVSGIGRDSGTIDYADSVKGRFTISRDNAKNSLYLQMNSLRAEDTALYYCAKISNGYRPDNWGQGTLVTVSS
VL: VLTQPPSVSVSPGQTARITCSGDVLAKRYARWFQQKPGQAPVVVIYKDSERPSGIPERLSGSSSGTTVTLTISGAQVEDEADYYCYCAADNNVVFGGGTKLTVL
notes: also called D6-HRP; HRP-D6
binds: [10]
